According to patent USRE49495E1, “Binding polypeptides having a mutated scaffold” (Affibody AB, priority 2013, dated 2023):

How the values were obtained:
[1] = Circular dichroism, variable temperature measurement (Tm) and spectra before and after heating; type: physicochemical; details: His6-tagged, 0.5 mg/ml in PBS, CD at 221 nm, 20 to 90° C.
Description: Circular dichroism (CD) analysis was carried out to determine the melting temperatures (Tm) and assess potential changes in the secondary structure of the inventive polypeptides as a result of the amino acid substitutions.
Purified His6-tagged Z variants were diluted to 0.5 mg/ml in PBS. For each diluted Z variant, a CD spectrum at 250-195 nm was recorded at 20° C. A variable temperature measurement (VTM) was performed to determine the Tm. In the VTM, the absorbance was measured at 221 nm while the temperature was raised from 20 to 90° C., with a temperature slope of 5° C./min. After the VTM, a second CD spectrum at 250-195 nm was recorded at 20° C. The CD measurements were performed on a Jasco J-810 spectropolarimeter (Jasco Scandinavia AB) using a cell with an optical path-length of 1 mm.

[2] = target: T1, human FcRn (Homo sapiens, UniProt P55899); test: Biacore 2000 comparative kinetic analysis, FcRn; type: binding; details: for KDInv/KDOrig: original set to 1.0
T1 construct: purchased Biorbyt orb 84388
Description: Comparative kinetic constants (kon and koff) and affinities (KD) were determined using a Biacore 2000 instrument. The target proteins human HER2-Fc (R&D Systems, cat. no. 1129-ER-050), human PDGF-Rβ (R&D Systems, cat. no. 385-PR-100/CF), human FcRn (Biorbyt, cat. no. orb 84388) and human CAIX (R&D Systems, cat. no. 2188-CA), respectively, were immobilized on the carboxylated dextran layer surface of CM5 chips (GE Healthcare). The immobilization was performed using amine coupling chemistry according to the manufacturer's protocol and using HBS-EP as running buffer. One flow cell surface on the chip was activated and deactivated for use as blank during analyte injections.
HBS-EP (HER2, PDGF-Rβ, CAIX) or a pH 6.0 Na2HPO4/citric acid buffer (126 mM Na2HPO4, 37 mM citric acid) (FcRn) was used as running buffer and the flow rate was 30 μl/min in the binding experiments performed at 25° C. as further described below.
Regeneration by three pulses of HBS-EP followed by 10 min equilibration in running buffer was applied after each analyte injection.
Kinetic constants were calculated from the sensorgrams using the Langmuir 1:1 model (HER2, FcRn, CAIX) or the 1:1 binding with mass transfer model (PDGF-Rβ) of the BiaEvaluation software 4.1 (GE Healthcare). Curves of the blank surface were subtracted from the curves of the ligand surfaces and the data from the buffer cycles were subtracted from the data of the test-sample cycles to correct for any drift in signal.

[3] = target: human FcRn (Biorbyt, cat. no. orb 84388) (human) (UniProt P55899); test: SPR Biacore 2000, FcRn on CM5 chip, pH 6.0, 1:1 Langmuir; KD after 2 weeks at 37 C against KD before
[4] = target: human FcRn (Biorbyt, cat. no. orb 84388) (human) (UniProt P55899); test: SPR Biacore 2000, FcRn on CM5 chip, pH 6.0, 1:1 Langmuir; sample (2w) after 2 weeks at 37 C
[5] = target: human FcRn (Biorbyt, cat. no. orb 84388) (human) (UniProt P55899); test: SPR Biacore 2000, FcRn on CM5 chip, pH 6.0, 1:1 Langmuir; sample (0) before stability test; reference Z10103 (0)
[6] = target: human FcRn (Biorbyt, cat. no. orb 84388) (human) (UniProt P55899); test: SPR Biacore 2000, FcRn on CM5 chip, pH 6.0, 1:1 Langmuir; sample (2w) after 2 weeks at 37 C; reference Z10103 (2w)
[7] = target: human FcRn (Biorbyt, cat. no. orb 84388) (human) (UniProt P55899); test: SPR Biacore 2000, FcRn on CM5 chip, pH 6.0, 1:1 Langmuir; sample (0) before stability test
[8] = target: T2, human HER2-Fc (R&D Systems, cat. no. 1129-ER-050) (human, UniProt P04626 23-652); test: SPR Biacore 2000, HER2-Fc on CM5 chip, 1:1 Langmuir; sample (0) before stability test
T2 construct: Bought; also called human epidermal growth factor receptor 2; not shown: Fc part of the bought fusion protein

[9] = target: T2, human HER2-Fc (R&D Systems, cat. no. …); test: SPR Biacore 2000, HER2-Fc on CM5 chip, 1:1 Langmuir; sample (2w) after 2 weeks at 37 C
[10] = target: T2, human HER2-Fc (R&D Systems, cat. no. …); test: SPR Biacore 2000, HER2-Fc on CM5 chip, 1:1 Langmuir; KD after 2 weeks at 37 C against KD before
[11] = target: T2, human HER2-Fc (R&D Systems, cat. no. …); test: SPR Biacore 2000, HER2-Fc on CM5 chip, 1:1 Langmuir; sample (2w) after 2 weeks at 37 C; reference Z02891 (2w)
[12] = target: T2, human HER2-Fc (R&D Systems, cat. no. …); test: SPR Biacore 2000, HER2-Fc on CM5 chip, 1:1 Langmuir; sample (0) before stability test; reference Z02891 (0)
[13] = Three month stability test at 37° C., RPC main peak
[14] = Accelerated stability study of C5 binding polypeptides, 2 weeks at 37° C., SDS-PAGE and Reversed Phase HPLC (RPC); type: physicochemical
[15] = (0) prior to stability test, pH 6.0
[16] = (2w) after 2 weeks at 37° C., pH 6.0

T1 sequence (P55899 24-297 limits assumed): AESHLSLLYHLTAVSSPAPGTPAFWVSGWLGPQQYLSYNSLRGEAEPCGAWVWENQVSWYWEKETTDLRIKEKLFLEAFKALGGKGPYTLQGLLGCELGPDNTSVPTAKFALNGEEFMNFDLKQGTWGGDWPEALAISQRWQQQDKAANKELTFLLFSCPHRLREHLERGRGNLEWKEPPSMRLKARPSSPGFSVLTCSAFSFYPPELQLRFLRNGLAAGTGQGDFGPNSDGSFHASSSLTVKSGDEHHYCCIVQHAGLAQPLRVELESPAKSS
T1 sequence (P61769 21-119 partner): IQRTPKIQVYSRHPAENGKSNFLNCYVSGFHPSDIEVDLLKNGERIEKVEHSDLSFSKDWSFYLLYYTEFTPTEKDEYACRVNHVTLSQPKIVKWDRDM

Molecule: Z17348: inventive FcRn binding Z variant; D36R, D37Q, S39E, N52S, D53E (AEAKYAKEQDAAAHEIRWLPNLTFDQRVAFIHKLARQPEQSSELLSEAKKLSESQAPK; Engineered FcRn binding Z variant)
- Tm (° C.) [1]: 44 °C
- KDInv/KDOrig ([2]; (0) prior to stability test): 1.93
- ka [2, 15]: 1.82e+06 M/s
- kd [2, 15]: 0.01 s⁻¹
- Kd ([2]; (0) prior to stability test, pH 6.0, comparative, not absolute): 5.5 nM
- KDInv/KDOrig ([2]; (2w) after 2 weeks at 37° C.): 3.46
- ka [2, 16]: 1.28e+06 M/s
- kd [2, 16]: 0.00809 s⁻¹
- Kd ([2]; (2w) after 2 weeks at 37° C., pH 6.0, comparative, not absolute): 6.3 nM
- KD(2w)/KD(0) ([2]; KD after stability test relative to KD before): 1.14
- effect of scaffold substitutions on the affinity ([2]; compared with original Z variant): more negative effect on the affinity
- Kd ([2]; range of magnitude): ~1 nM

B1: Z17348 (designed binder)
chain: MGSSHHHHHHLQAEAKYAKEQDAAAHEIRWLPNLTFDQRVAFIHKLARQPEQSSELLSEAKKLSESQAPK
- KD(2w)/KD(0) [3]: 1.14
- Kd [4]: 6.3 nM
- koff [4]: 0.00809 s⁻¹
- kon [4]: 1.28e+06 M⁻¹ s⁻¹
- KDInv/KDOrig [5]: 1.93
- KDInv/KDOrig [6]: 3.46
- Kd [7]: 5.5 nM
- koff [7]: 0.01 s⁻¹
- kon [7]: 1.82e+06 M⁻¹ s⁻¹

B2: Z17342 (designed binder)
chain: MGSSHHHHHHLQAEAKYAKEMRNAYWEIALLPNLTNQQKRAFIRKLYRQPEQSSELLSEAKKLSESQAPK
- Kd [8]: 1.8 nM
- koff [8]: 0.00157 s⁻¹
- kon [8]: 894000 M⁻¹ s⁻¹
- Kd [9]: 2.3 nM
- koff [9]: 0.0015 s⁻¹
- kon [9]: 649000 M⁻¹ s⁻¹
- KD(2w)/KD(0) [10]: 1.31 ratio
- KDInv/KDOrig [11]: 37 ratio
- KDInv/KDOrig [12]: 33 ratio

B3: PSI0383: C5 binding polypeptide fused to albumin binding domain; ND to SE in positions 52-53 (protein)
chain: AEAKYAKEVLEAWDEIDRLPNLTIEQWLAFINKLDRQPEQSSELLSEAKKLSESQAPKVEGSLAEAKEAANAELDSYGVSDFYKRLIDKAKTVEGVEALKDAILAALP
modifications: Engineered C5 binding Z variant
- stability after 3 months at 37° C. compared with PSI0242 after 2 weeks [13]: higher proportion of protein in the original form
- 3 months, 37° C. Main peak (% of total protein) ([13]; RPC): 59%
- Main peak (% of total protein) ([14]; RPC, after 2 weeks at 37° C., 25 mM NaP/125 mM NaCl pH 7.0): 91%
- 2 weeks, 37° C. Main peak (% of total protein) ([14]; RPC, data from Example 2 repeated in Table 8): 91%
- stability when compared with PSI0242 ([14]; conclusion from Table 1, 2 weeks at 37° C.): increased stability
